The target in this assay is streptavidin (UniProt P22629). The assay is described as follows: capture of cells on streptavidin coated magnetic beads, before selection.
Chain of UniProt P22629 (P22629 37-163 limits assumed): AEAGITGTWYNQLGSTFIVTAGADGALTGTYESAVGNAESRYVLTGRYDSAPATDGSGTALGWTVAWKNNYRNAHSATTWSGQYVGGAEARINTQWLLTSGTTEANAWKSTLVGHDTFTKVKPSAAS

As to “Ramos IgM (immunoglobulin of the unselected / wild-type Ramos Burkitt lymphoma cell line) (antibody)”, the proportion of cells which bind to the beads was 0.02%.

The values above are taken from EP2204447B1.
